# Reference: publication PMC5794333, “Identification of osmoadaptive strategies in the halophile, heterotrophic ciliate Schmidingerothrix salinarum” (PLoS Biology, 2018)
# Assays:
# [1] = test system: O=C(O)CC(C(=O)O)C(O)C(=O)O; experiment: purified protein; settings: 0.05 M NaCl, 0.8 mM NADP+, 1 mM MgCl2, 32.5 mM Tris/HCl pH 7.5, concentration as DL-isocitrate, text b40 prints 0.010 mM, the table's Vmax/Km fits 0.019
# [2] = test system: O=C(O)CC(=O)C(=O)O; experiment: purified protein; settings: 0.05 M NaCl, 0.3 mM NADH, 32.5 mM Tris/HCl pH 7.5
Substance,Km [1],Vmax [1],Km [2],Vmax [2]
ICDHS.salinarum (Schmidingerothrix salinarum),19 µM,6.8 µmol/min/mg,–,–
MDHS.salinarum (Schmidingerothrix salinarum),–,–,38 µM,2060 µmol/min/mg
